In US20250042996A1 (ALLAKOS, published 2025):
Positions count from the first letter of the chain named. Read-outs that look alike come from different tables or passages of the source.

Experiments:
[1] = molecular target: human SIGLEC-9-ECD-Fc recombinant fusion protein (human) (UniProt Q9Y336); assay: column 'Displacement EC50 (nM)': ligand displacement assay, Siglec-9-ECD-Fc pre-bound to ligands on T47D cells, antibody titrated, remaining Siglec-9-ECD-Fc by flow cytometry
[2] = molecular target: human Siglec-9 (expressed on transfected Expi293 cells; also on primary human monocytes) (human) (UniProt Q9Y336)
[3] = molecular target: human SIGLEC-9-ECD-Fc recombinant fusion protein (human) (UniProt Q9Y336); assay: Siglec-9/Ligand Blocking Assay: antibody titrated against Siglec-9-ECD-Fc, blocked binding to ligands on T47D cells, median MFI by flow cytometry; unit inferred, x axis 'Ab (nM)'
[4] = molecular target: human SIGLEC-9-ECD-Fc recombinant fusion protein (human) (UniProt Q9Y336); assay: column 'Blocking EC50 (nM)': ligand blocking assay, antibody pre-mixed with Siglec-9-ECD-Fc, blocked binding to Siglec-9 ligands on T47D cells, flow cytometry
[5] = molecular target: human SIGLEC-9-ECD-Fc recombinant fusion protein (human) (UniProt Q9Y336); assay: Ligand Displacement Assay: Siglec-9-ECD-Fc pre-bound to ligands on T47D cells, antibody titrated, remaining Siglec-9-ECD-Fc as median MFI by flow cytometry; unit inferred, x axis 'Ab (nM)'
[6] = molecular target: human SIGLEC-9-ECD-Fc recombinant fusion protein (human) (UniProt Q9Y336); assay: Siglec-9/Ligand Blocking Assay, negative control: fitted value printed for an almost flat curve; unit inferred, x axis 'Ab (nM)'
[7] = molecular target: human SIGLEC-9-ECD-Fc recombinant fusion protein (human) (UniProt Q9Y336); assay: Ligand Displacement Assay, negative control: fitted value printed for a curve that only dips at the last points; unit inferred, x axis 'Ab (nM)'
[8] = molecular target: T1, human SIGLEC-9-ECD-Fc recombinant fusion protein (human, UniProt Q9Y336 18-343); assay: Ligand Displacement Assay: Siglec-9-ECD-Fc pre-bound to ligands on T47D cells, antibody titrated, remaining Siglec-9-ECD-Fc as median MFI by flow cytometry; unit inferred, x axis 'Ab (nM)'
T1 construct: The range starts at residue 1, so it includes the signal peptide; No cleavage site is stated; Secreted from CHOK1SV cells and purified on Protein A; also called Siglec-9-ECD-huFc; S9-ECD-Fc
Description: (§1) Recombinant Siglec-9-Fc was added to T47D cells in the presence of anti-Siglec-9 antibodies at increasing concentrations and binding of the complex was detected on the cell surface. […] The ability of an antibody to displace ligand binding was also determined (FIGS. 3 and 5).
(§2) T47D cells were treated with 2ug/mL S9-ECD-Fc for 1 hour on ice. After the 1 hr preincubation of S9, a titration curve of anti Siglec-9 msIgG1s were added for 1 hr incubation at +37° C. Cells were then washed to remove unbound S9. Bound S9 were detected through the human Fc using Alexa488 conjugated secondary. Levels of remaining S9 were assessed by flow cytometry”

[9] = molecular target: human Siglec-9 (expressed on transfected Expi293 cells; also on primary human monocytes) (human, UniProt Q9Y336 18-463); assay: cell-based or functional assay
[10] = molecular target: T1, human SIGLEC-9-ECD-Fc recombinant …; assay: column 'Blocking EC50 (nM)': ligand blocking assay, antibody pre-mixed with Siglec-9-ECD-Fc, blocked binding to Siglec-9 ligands on T47D cells, flow cytometry
Description: as §1
(§3) Human breast cancer cell line T47D, which expresses high level of ligands for Siglec-9, was used to determine the blocking activity of anti-Siglec-9 antibodies in a cell-based assay. Two-fold serial dilutions of anti-Siglec-9 antibodies (40 nM to 40 pM) were combined with 10 nM Siglec-9-ECD-Fc in FACS buffer (PBS/2% BSA) and incubated on ice for 30 minutes. 2.5×10e4 T47D cells per well were added to round bottom 96-well tissue culture plates in FACS buffer, plates were centrifuged at 400g for 2 min, supernatant was removed and cells were re-suspended in 100 ul of the antibody-Siglec-9 complexes. After a 1 hour incubation on ice, cells were washed twice and incubated for 30 minutes with goat anti-human F(ab′)₂ fragment conjugated to AF647 (Jackson IR labs) at lug/ml in FACS buffer. After two more washes, cells were fixed in PBS/2% PFA and acquired on a Novocyte flow cytometer (ACEA biosciences). IC₅₀ values for blocking were determined based on plotting mean fluorescence in the APC channel and analysis using Prism Graphpad software.

[11] = molecular target: T1, human SIGLEC-9-ECD-Fc recombinant …; assay: Siglec-9/Ligand Blocking Assay: antibody titrated against Siglec-9-ECD-Fc, blocked binding to ligands on T47D cells, median MFI by flow cytometry; unit inferred, x axis 'Ab (nM)'
Description: as §1, §3

[12] = molecular target: T1, human SIGLEC-9-ECD-Fc recombinant …; assay: column 'Displacement EC50 (nM)': ligand displacement assay, Siglec-9-ECD-Fc pre-bound to ligands on T47D cells, antibody titrated, remaining Siglec-9-ECD-Fc by flow cytometry
Description: as §1, §2

[13] = molecular target: T1, human SIGLEC-9-ECD-Fc recombinant …; assay: bio-layer interferometry (ForteBio), antibody captured on anti-mouse sensors, Siglec-9-ECD as analyte, 25 C, 1:1 global fit
Description: Antibody binding analysis was carried out by bio-layer interferometry (ForteBio). […] Antibodies were captured on anti-mouse kinetic sensors at 0.5 ug/mL; Siglec-9-ECD was used as analyte and diluted in assay buffer from 50 nM to 1.56 nM with 2x dilutions. Two-minute associations were conducted, followed by 10-minute dissociations. Results were determined relative to a control empty reference AHC sensor, and analyzed using ForteBio analysis software with 1:1 global fit parameters.

[14] = molecular target: T1, human SIGLEC-9-ECD-Fc recombinant …; assay: BLI (ForteBio Octet Red), SIGLEC-9-ECD-Fc on anti-human Fc sensors, Fab in solution, monovalent
Description: (§4) Anti-human Fc sensors were coated with SIGLEC-9-ECD-Fc at a concentration of 20 μg/ml in 1XHBS+1% BSA buffer (GE Lifesciences). After a brief wash with 1XHBS+1% BSA buffer, m9A12, ch9A12 or the humanized Fabs were applied to the antigen-coated sensors. The monovalent binding association and dissociation rates were calculated by the ForteBio Octet Red analysis software.

[15] = molecular target: T1, human SIGLEC-9-ECD-Fc recombinant …; assay: as above; remark: listed apart in the source
Description: The V-regions from the humanized Fab were re-formatted for expression as a human IgG4.
as §4

human SIGLEC-9-ECD-Fc recombinant fusion protein (human), sequence (Q9Y336 18-343): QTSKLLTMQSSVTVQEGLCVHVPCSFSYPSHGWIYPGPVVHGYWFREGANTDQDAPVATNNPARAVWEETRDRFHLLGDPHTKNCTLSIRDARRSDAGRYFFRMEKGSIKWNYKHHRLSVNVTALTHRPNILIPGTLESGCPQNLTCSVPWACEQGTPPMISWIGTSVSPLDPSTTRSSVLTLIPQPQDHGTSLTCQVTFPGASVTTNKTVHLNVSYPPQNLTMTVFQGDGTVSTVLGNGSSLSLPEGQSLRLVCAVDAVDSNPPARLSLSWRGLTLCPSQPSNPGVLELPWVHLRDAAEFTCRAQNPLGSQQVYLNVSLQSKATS
T1 sequence (Q9Y336 18-343): as above
human Siglec-9 (expressed on transfected Expi293 cells; also on primary human monocytes), sequence (Q9Y336 18-463 limits assumed): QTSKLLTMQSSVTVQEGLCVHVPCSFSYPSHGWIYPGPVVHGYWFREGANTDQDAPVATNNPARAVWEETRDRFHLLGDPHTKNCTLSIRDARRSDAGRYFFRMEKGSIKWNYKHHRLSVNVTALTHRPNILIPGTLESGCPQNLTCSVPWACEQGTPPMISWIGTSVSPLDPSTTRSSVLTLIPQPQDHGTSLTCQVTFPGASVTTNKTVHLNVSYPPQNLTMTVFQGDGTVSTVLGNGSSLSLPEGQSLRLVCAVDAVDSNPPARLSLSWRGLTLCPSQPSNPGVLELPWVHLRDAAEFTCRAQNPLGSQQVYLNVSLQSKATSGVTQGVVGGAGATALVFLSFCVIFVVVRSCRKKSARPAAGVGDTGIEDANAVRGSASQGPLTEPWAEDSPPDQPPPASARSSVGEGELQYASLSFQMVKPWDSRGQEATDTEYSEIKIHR
human Siglec-9 (expressed on transfected Expi293 cells; also on primary human monocytes) (human), sequence (Q9Y336 18-463 limits assumed): as above

In the case of “anti-Siglec-9 monoclonal antibody MAB1139 (R&D Systems)”, the EC50 [1] is reported as 2 nM, the Internalization EC50: loss of surface Siglec-9 on CD14+ monocytes in PBMC after 24 h [2] is reported as 0.165 nM and the IC50 [3] is reported as 4.39 nM. It also gave an EC50 [4] of 4.4 nM and an IC50 [5] of 2 nM.

For Isotype (p3) (antibody), the IC50 [6] was 71.3 nM.

Work on msIgG1 (p1) (antibody) yielded an IC50 [7] of 140 nM.

B1: mouse anti-Siglec-9 monoclonal antibody 9A12 (antibody, V domains shown)
VH: QVQLQQSGAELVRPGASVTLSCKASDYTFTDYEMHWVKQTPVHGLEWIGAIDPEAGGTDYNQKFKGKAILTADKSSSTAYMELRSLTSEDSAVYYCTRVWLHWGQGTTLTVSS
VL: NIVMTQSPSSLAVSAGEKVTMNCKSSQSVLYSSNQKNYLAWYQQKPGQSPKMLIYWASTRESGVPDRFTGSGSGTDFTLTISSVQSEDLAVYYCHQYLSSNTFGGGTKLEIK
notes: Mouse monoclonal antibody; also called m9A12
In the case of B1, the IC50 [8] is reported as 1.52 nM, the “Internalization EC50: loss of surface Siglec-9 on CD14+ monocytes in PBMC after 24 h” value [9] is reported as 0.125 nM and the EC50 [10] is reported as 2.62 nM. The IC50 [11] was 2.62 nM, the EC50 [12] was 1.52 nM and the Kd [13] was under 0.001 nM.

B2: Tf83 Fab (Fab)
chain 1: QVQLVQSGAEVKKPGASVKVSCKASDYTFTDYEMHWVRQAPGQGLEWMGAINPEAGGTDYAQKFQGRVTMTADTSISTAYMELSRLRSDDTAVYYCTRVWLHWGQGTLVTVSS
chain 2: B1 VL with N1D, S9D, A15L, K18R, S49P, T69S, V84L, S86A, L89V, G105Q
B2 showed a Kd [14] of 9.99 nM, a koff [14] of 0.00297 s⁻¹ and a kon [14] of 298000 M⁻¹ s⁻¹.

B3: Tf71 Fab (Fab)
chain 1: B2 chain 1 with D26G, N52D
chain 2: B1 VL with N1D, S9D, A15L, K18R, S49P, T69S, V84L, S86A, L89V, G105Q
With B3 the Kd [14] was 0.533 nM, the koff [14] was 0.000232 s⁻¹ and the kon [14] was 435000 M⁻¹ s⁻¹.

B4: Tf84 Fab (Fab)
chain 1: B2 chain 1 with A55S
chain 2: B1 VL with N1D, S9D, A15L, K18R, S49P, T69S, V84L, S86A, L89V, G105Q
B4 was tested, and the Kd [14] was 2.24 nM, the koff [14] was 0.00295 s⁻¹ and the kon [14] was 1.32e+06 M⁻¹ s⁻¹.

B5: Tf73 Fab (Fab, V domains shown)
VH: B2 chain 1 with D31G, N52D
VL: B1 VL with N1D, S9D, A15L, K18R, S49P, T69S, V84L, S86A, L89V, G105Q
notes: also called AK643-3 / AK628-1
B5 showed a Kd [14] of 0.575 nM, a koff [14] of 0.000184 s⁻¹ and a kon [14] of 319000 M⁻¹ s⁻¹. The Kd [15] was 0.575 nM, the koff [15] was 0.000184 s⁻¹ and the kon [15] was 319000 M⁻¹ s⁻¹.

B6: Tf63 Fab (Fab, V domains shown)
VH: B2 chain 1 with N52D
VL: B1 VL with N1D, S9D, A15L, K18R, S49P, T69S, V84L, S86A, L89V, G105Q
notes: Humanized 9A12 Fab; also called AK639-12 / AK628-1
In the case of B6, the Kd [15] is reported as 0.66 nM, the koff [15] is reported as 0.00016 s⁻¹ and the kon [15] is reported as 242000 M⁻¹ s⁻¹.
